From publication PMC7205462 (eLife, 2020)
Where no end group is shown, it is not given here. fluorescein = fluorescein (from 5-iodoacetamide fluorescein) label on the Cys side chain

Key:
[1] = target: T1, TmrAB (Thermus thermophilus, UniProt Q72J04+Q72J05, Q72J05:E523Q); experiment: biochemical
T1 construct: gene TT_C0976

[2] = target: TmrA^E523QB (Thermus thermophilus)
[3] = target: TmrA^E523QB (Thermus thermophilus); remark: listed apart in the source
[4] = target: Thermus thermophilus multidrug resistance transport complex TmrAB, wildtype (Thermus thermophilus)
[5] = target: TmrA^E523QB (Thermus thermophilus); details: scale: translocated peptides per TmrA^EQB complex
[6] = target: TmrA^E523QB (Thermus thermophilus); experiment: radioligand binding; SPA time course at 20 °C; TmrA^EQB (0.2 µM) first converted to the OF state with Mg2+-ATP (5 min, 45 °C), excess ATP removed by rapid gel filtration, then R9LQK (10 µM, traced with 3H-R9L); mono-exponential fit; apparent
[7] = target: Thermus thermophilus multidrug resistance transport complex TmrAB, wildtype (Thermus thermophilus); experiment: radioligand binding; scintillation proximity assay (SPA), equilibrium; His-tagged TmrAB (0.2 µM) in lipid nanodiscs held on copper-chelated SPA beads; R9LQK traced with 3H-R9L; no nucleotide (IF conformation); 20 °C; background with 200 mM imidazole; one-site binding model

Molecule: Nc1ncnc2c1ncn2[C@@H]1O[C@H](COP(=O)(O)OP(=O)(O)OP(=O)(O)O)[C@@H](O)[C@H]1O [ATP]
- EC50 [1]: 30 µM

B1: C4F peptide (RRYC^fluoresceinKSTEL) (peptide)
peptide: RRYC(fluorescein)KSTEL
modifications: also: fluorescein attached via 5-iodoacetamide fluorescein
- C4F peptides transported per liposome in the burst phase (0–5 min at 45 °C) of a time course; single-liposome flow cytometry (30 µM C4F, 3 mM Mg2+-ATP) (peptides per liposome) [2]: 30
- C4F peptides translocated per correctly oriented TmrA^EQB upon each IF-to-OF transition; single-liposome flow cytometry (30 µM C4F, 3 mM Mg2+-ATP, two consecutive switches) (peptides per correctly oriented TmrA^EQB) [3]: 1.3
- transported C4F peptides with ATP against the background control with ADP; single-liposome flow cytometry (30 µM C4F, 3 mM Mg2+-ATP or Mg2+-ADP, 5 min at 45 °C) [4]: 100 fold
- translocated C4F peptides per TmrA^EQB complex; single-turnover transport into proteoliposomes (50 µM C4F, 3 mM Mg2+-ATP, 5 min at 45 °C), fluorescence read-out [5]: 0.5

B2: R9LQK peptide (…) (peptide)
peptide: RRYQKSTEL
- apparent association rate kon (recovery of peptide binding along the OF-to-IF return) [6]: 0.03 min⁻¹
- half-life of the recovery of peptide binding [6]: 24 min
- Kd [7]: 70 µM
